The values that follow come from the Human Domainome abundance scans (Beltran et al. 2025).

± gives the uncertainty stated by the source.

The nature of the series: abundance fitness (aPCA) (normalised: wild type 0, dead -1); higher = more abundant; growth selection in yeast, the domain comes from the species named. To be noted: Saccharomyces cerevisiae (strain ATCC 204508 / S288c).
As for “E3 ubiquitin-protein ligase RSP5 A347C, P39940”, the abundance fitness was 0.08 ± 0.095.
“E3 ubiquitin-protein ligase RSP5 A347D, P39940” yielded an abundance fitness of -0.025 ± 0.084.
Take “E3 ubiquitin-protein ligase RSP5 A347E, P39940”: the abundance fitness is -0.034 ± 0.056.
Next, “E3 ubiquitin-protein ligase RSP5 A347F, P39940”: -0.067 ± 0.19; “E3 ubiquitin-protein ligase RSP5 A347G, P39940”: -0.043 ± 0.047; “E3 ubiquitin-protein ligase RSP5 A347H, P39940”: -0.048 ± 0.056.
To “E3 ubiquitin-protein ligase RSP5 A347K, P39940” belongs 0.008 ± 0.053.
“E3 ubiquitin-protein ligase RSP5 A347L, P39940” returned an abundance fitness of -0.044 ± 0.045.
Next, “E3 ubiquitin-protein ligase RSP5 A347M, P39940”: 0.089 ± 0.064; “E3 ubiquitin-protein ligase RSP5 A347N, P39940”: -0.034 ± 0.059.
Next, “E3 ubiquitin-protein ligase RSP5 A347P, P39940”: -0.115 ± 0.064; “E3 ubiquitin-protein ligase RSP5 A347Q, P39940”: -0.063 ± 0.055; “E3 ubiquitin-protein ligase RSP5 A347R, P39940”: -0.031 ± 0.045.
To “E3 ubiquitin-protein ligase RSP5 A347V, P39940” belongs -0.044 ± 0.046; to “E3 ubiquitin-protein ligase RSP5 A347W, P39940”, -0.316 ± 0.047.
“E3 ubiquitin-protein ligase RSP5 A347Y, P39940” gave an abundance fitness of -0.128 ± 0.063.
Substance “E3 ubiquitin-protein ligase RSP5 D351A, P39940” gave an abundance fitness of -0.731 ± 0.053.
Next, “E3 ubiquitin-protein ligase RSP5 D351C, P39940”: -0.256 ± 0.067.
To “E3 ubiquitin-protein ligase RSP5 D351E, P39940” belongs -0.488 ± 0.052.
Next, “E3 ubiquitin-protein ligase RSP5 D351G, P39940”: -0.89 ± 0.046; “E3 ubiquitin-protein ligase RSP5 D351H, P39940”: -0.574 ± 0.21.
“E3 ubiquitin-protein ligase RSP5 D351K, P39940” had an abundance fitness of -0.748 ± 0.084.
To “E3 ubiquitin-protein ligase RSP5 D351L, P39940” belongs -1.08 ± 0.059; to “E3 ubiquitin-protein ligase RSP5 D351M, P39940”, -0.772 ± 0.13; to “E3 ubiquitin-protein ligase RSP5 D351P, P39940”, -1.24 ± 0.15.
To “E3 ubiquitin-protein ligase RSP5 D351Q, P39940” belongs -0.612 ± 0.21; to “E3 ubiquitin-protein ligase RSP5 D351R, P39940”, -0.864 ± 0.05.
“E3 ubiquitin-protein ligase RSP5 D351S, P39940” displayed an abundance fitness of -0.584 ± 0.057.
To “E3 ubiquitin-protein ligase RSP5 D351T, P39940” belongs -0.966 ± 0.073; to “E3 ubiquitin-protein ligase RSP5 D351V, P39940”, -1.24 ± 0.068.
Consider “E3 ubiquitin-protein ligase RSP5 D351W, P39940”, for which the abundance fitness is -1.28 ± 0.097.
“E3 ubiquitin-protein ligase RSP5 D361A, P39940” yielded an abundance fitness of -0.269 ± 0.053.
Next, “E3 ubiquitin-protein ligase RSP5 D361C, P39940”: -0.183 ± 0.1.
For the substance “E3 ubiquitin-protein ligase RSP5 D361E, P39940”, the abundance fitness is -0.266 ± 0.053.
Take “E3 ubiquitin-protein ligase RSP5 D361G, P39940”: the abundance fitness is -0.534 ± 0.047.
“E3 ubiquitin-protein ligase RSP5 D361I, P39940” displayed an abundance fitness of -0.632 ± 0.15.
Regarding “E3 ubiquitin-protein ligase RSP5 D361K, P39940”, the abundance fitness is -0.25 ± 0.06.
To “E3 ubiquitin-protein ligase RSP5 D361L, P39940” belongs -0.641 ± 0.056; to “E3 ubiquitin-protein ligase RSP5 D361N, P39940”, -0.304 ± 0.085; to “E3 ubiquitin-protein ligase RSP5 D361P, P39940”, -0.516 ± 0.12.
Next, “E3 ubiquitin-protein ligase RSP5 D361Q, P39940”: -0.305 ± 0.086; “E3 ubiquitin-protein ligase RSP5 D361S, P39940”: -0.409 ± 0.054; “E3 ubiquitin-protein ligase RSP5 D361T, P39940”: -0.562 ± 0.065.
“E3 ubiquitin-protein ligase RSP5 D361V, P39940” showed an abundance fitness of -0.607 ± 0.043.
For “E3 ubiquitin-protein ligase RSP5 D361Y, P39940”, the abundance fitness is -0.594 ± 0.062.
To “E3 ubiquitin-protein ligase RSP5 E332A, P39940” belongs 0.03 ± 0.051.
The substance “E3 ubiquitin-protein ligase RSP5 E332C, P39940” came in with an abundance fitness of -0.116 ± 0.08.
“E3 ubiquitin-protein ligase RSP5 E332D, P39940” registered an abundance fitness of 0.038 ± 0.074.
Next, “E3 ubiquitin-protein ligase RSP5 E332F, P39940”: -0.165 ± 0.12.
“E3 ubiquitin-protein ligase RSP5 E332G, P39940”: the abundance fitness was -0.066 ± 0.046.
In turn, “E3 ubiquitin-protein ligase RSP5 E332H, P39940” yielded an abundance fitness of -0.551 ± 0.13.
Consider “E3 ubiquitin-protein ligase RSP5 E332I, P39940”, for which the abundance fitness is -0.225 ± 0.087.
Substance “E3 ubiquitin-protein ligase RSP5 E332K, P39940” gave an abundance fitness of -0.046 ± 0.064.
In turn, “E3 ubiquitin-protein ligase RSP5 E332L, P39940” registered an abundance fitness of -0.459 ± 0.051.
To “E3 ubiquitin-protein ligase RSP5 E332M, P39940” belongs -0.093 ± 0.069; to “E3 ubiquitin-protein ligase RSP5 E332P, P39940”, -0.128 ± 0.057; to “E3 ubiquitin-protein ligase RSP5 E332Q, P39940”, -0.359 ± 0.061.
To “E3 ubiquitin-protein ligase RSP5 E332R, P39940” belongs -0.36 ± 0.043; to “E3 ubiquitin-protein ligase RSP5 E332S, P39940”, -0.179 ± 0.053; to “E3 ubiquitin-protein ligase RSP5 E332T, P39940”, -0.14 ± 0.069.
In turn, “E3 ubiquitin-protein ligase RSP5 E332V, P39940” returned an abundance fitness of -0.07 ± 0.047.
Substance “E3 ubiquitin-protein ligase RSP5 E332W, P39940” gave an abundance fitness of -0.493 ± 0.046.
The substance “E3 ubiquitin-protein ligase RSP5 E332Y, P39940” displayed an abundance fitness of -0.184 ± 0.066.
To “E3 ubiquitin-protein ligase RSP5 E338A, P39940” belongs -0.333 ± 0.056; to “E3 ubiquitin-protein ligase RSP5 E338C, P39940”, -0.476 ± 0.16; to “E3 ubiquitin-protein ligase RSP5 E338D, P39940”, -0.022 ± 0.13.
Next, “E3 ubiquitin-protein ligase RSP5 E338F, P39940”: -0.73 ± 0.14; “E3 ubiquitin-protein ligase RSP5 E338G, P39940”: -0.454 ± 0.045.
Regarding “E3 ubiquitin-protein ligase RSP5 E338H, P39940”, the abundance fitness was -0.349 ± 0.1.
For the substance “E3 ubiquitin-protein ligase RSP5 E338K, P39940”, the abundance fitness was -0.463 ± 0.049.
“E3 ubiquitin-protein ligase RSP5 E338L, P39940”: the abundance fitness was -0.499 ± 0.044.
Substance “E3 ubiquitin-protein ligase RSP5 E338M, P39940” returned an abundance fitness of -0.402 ± 0.047.
For “E3 ubiquitin-protein ligase RSP5 E338N, P39940”, the abundance fitness is -0.501 ± 0.09.
Next, “E3 ubiquitin-protein ligase RSP5 E338P, P39940”: -0.874 ± 0.083; “E3 ubiquitin-protein ligase RSP5 E338Q, P39940”: -0.027 ± 0.065; “E3 ubiquitin-protein ligase RSP5 E338R, P39940”: -0.626 ± 0.045.
Next, “E3 ubiquitin-protein ligase RSP5 E338S, P39940”: -0.19 ± 0.046; “E3 ubiquitin-protein ligase RSP5 E338V, P39940”: -0.278 ± 0.053; “E3 ubiquitin-protein ligase RSP5 E338W, P39940”: -0.978 ± 0.11.
Next, “E3 ubiquitin-protein ligase RSP5 E338Y, P39940”: -0.632 ± 0.075.
For the substance “E3 ubiquitin-protein ligase RSP5 E344A, P39940”, the abundance fitness is -0.144 ± 0.045.
“E3 ubiquitin-protein ligase RSP5 E344C, P39940” registered an abundance fitness of -0.264 ± 0.097.
Next, “E3 ubiquitin-protein ligase RSP5 E344D, P39940”: 0.149 ± 0.087; “E3 ubiquitin-protein ligase RSP5 E344F, P39940”: -0.309 ± 0.072; “E3 ubiquitin-protein ligase RSP5 E344G, P39940”: -0.038 ± 0.045.
Take “E3 ubiquitin-protein ligase RSP5 E344H, P39940”: the abundance fitness was 0.116 ± 0.16.
To “E3 ubiquitin-protein ligase RSP5 E344I, P39940” belongs -0.215 ± 0.091.
To “E3 ubiquitin-protein ligase RSP5 E344K, P39940” belongs -0.222 ± 0.063.
Next, “E3 ubiquitin-protein ligase RSP5 E344L, P39940”: -0.31 ± 0.047.
As to “E3 ubiquitin-protein ligase RSP5 E344M, P39940”, the abundance fitness was -0.103 ± 0.06.
Next, “E3 ubiquitin-protein ligase RSP5 E344N, P39940”: -0.032 ± 0.081.
